# B1: PDZ-LxxLL chimera fused to a Gaussia princeps luciferase fragment (GPCA) (designed binder)
# chain: GKPFFTRNPSELKGKFIHTKLRKSSRGFGFTVVGGDEPDEFLQIKSLVLDGPAALDGKMETGDVIVSVNDTCVLGHTHAQVVKIFQSIPIGASVDLELCRGYPLPFDPDDPNTSLVTSVAILDKEPAAAELTLQELLGEER
# Molecular target: HPV16 E6 (GPCA fusion) (HPV16, UniProt P03126 1-158)
# Assay: split reporter
binder,measurement,value
B1,fold increase of the GPCA binding signal over that with LxxLL,75 fold
same,fold increase of the GPCA binding signal over that with PDZ,25 fold

# Source: article PMC4512291 (Angewandte Chemie (International Ed. in English), 2015)
